Data published in the supplement of paper PMC9170038.

Test system: MS2 coat protein
Assay: apparent KD of MS2 coat protein; designed switch direction (-1 OFF switch, 1 ON switch): -1; higher = weaker reporter binding
Procedure, shortened: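 The apparent KD reported per design is the median over clusters of curve fits to normalised cluster fluorescence. The RNA switches were transcribed on Illumina chips by stalled E. coli RNA polymerase. SNAP-549-labelled MS2 coat protein was titrated from 0.7 or 1.5 nM, doubling up to 3 µM, in Tris-HCl pH 7.5 buffer containing KCl, MgCl2, BSA, DTT, tRNA and Tween-20, with no input, 200 uM small-molecule ligand, or an oligonucleotide input.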

[1] = Eterna round: R95, input ligand: microRNA oligo, concentration not stated
[2] = Eterna round: R95, input ligand: FMN 200 uM
[3] = Eterna round: R95, input ligand: none
[4] = input ligand: microRNA oligo, concentration not stated

Sequence | apparent KD of MS2 coat protein (input ligand: FMN 200 uM) [nM] | apparent KD of MS2 coat protein (input ligand: none) [nM] | also measured
CAGUACUGAGGAUAUACAUGAGGAUCACCCAUGUUGAGAUGAAAAGAAAUAGUUUCAUGUAGAAGGCGGUGCUG [JR_Ex3_Sub048] (Eterna round: R97, puzzle: Exclusion 3) | 365 | 118 | 
CAUACACAUGAGGAUCACCCAUGUGAGGAUAUGCGUACGUUGUCCGUAGGCGACGUGCGCAGAAGGCGCUUGGU [JL-ex1-3.18 Eli mod] (puzzle: Exclusion 1) |  |  | apparent KD of MS2 coat protein [1]: 49 nM
CAUACUCAAGUCAGGAUAUACAGUCGGAUACGGGUGUAGAAGGGACAUGAGGAUCACCCAUGUAGAGAGUAAAG [EX-4 Malc #23] (puzzle: Brourd's mod of Exclusion 4) |  |  | apparent KD of MS2 coat protein [2]: 87 nM; apparent KD of MS2 coat protein [1]: 31.1 nM; apparent KD of MS2 coat protein [3]: 53.8 nM
CAUAUGUUAGGAUAUGCACAGAUCUCCGAAAGGAGAUCUGUGCAGAAGGAACAUGAGGAUCACCCAUGUUGAUG [Mod of Brourd 17 - Jieux - Exclusion 4] (Eterna round: R97, puzzle: Exclusion 4) | 176 | 34.2 | 
CAUGAGGGAGGAUAUACAUGAGGAUCACCCAUGUAACUGGGAGUAGUUCUUCGUAGUCGUAGAAGGCCUGAGGG [Eternabot (L1) Solution 14] (Eterna round: R97, puzzle: Exclusion 3) | 242 | 723 | 
CAUGAUCUUCGGAUCAUGUACAUGAGGAUCACCCAUGUGACGAGUUACAUGAAAAACAAGCUUUUUGCUCGUCUUAU [Sensor v3 - Turn-off variant 1 - 9] (puzzle: Sensor v3, turn-off variant 1) |  |  | apparent KD of MS2 coat protein [2]: 42.1 nM; apparent KD of MS2 coat protein [1]: 121 nM; apparent KD of MS2 coat protein [3]: 49.8 nM
CAUGAUUGGGAAGGAUAUUGACCUAGUUAGCGCCGAGAAGGUCCCUGUCACAUGAGGAUCACCCAUGUGAGUCUGGUGUUCGAG [Ex NG1 #95] (Eterna round: R96, puzzle: Exclusion NG 1) | 29.7 | 21.6 | apparent KD of MS2 coat protein [4]: 17.7 nM
CAUGAUUUUCGGAAAAUGUACAUGAGGAUCACCCAUGUGACGAGUUACAUGAAAAACAAGCUUUUUGCUCGUCUUAU [Sensor v3 - Turn-off variant 1 - 11] (puzzle: Sensor v3, turn-off variant 1) |  |  | apparent KD of MS2 coat protein [2]: 102 nM; apparent KD of MS2 coat protein [1]: 24.8 nM; apparent KD of MS2 coat protein [3]: 188 nM
CAUGUGCGAAAGGAUAUGGCCCGCGGAUCAGCUCCAGAAGGUUCGACAUGAGGAUCACCCAUGUGAUCUGGUAA [Eternabot (L1) Solution 61] (Eterna round: R97, puzzle: Exclusion 6) | 139 | 369 | 
CAUGUGUUAGGAUAUGCACAGAUCUCCUAAUGGAGAUCUGUGCAGAAGGAACAUGAGGAUCACCCAUGUUGAUG [Mod of Brourd 13 - Jieux - Exclusion 4] (Eterna round: R97, puzzle: Exclusion 4) | 129 | 35.4 | 
CAUUAACAUGAGGAUCACCCAUGUGAGGAUAUGGAUACAUAAUACUACUACAUAAAUACCAGAAGGCGCAUACU [Maybaline] (puzzle: Exclusion 1) |  |  | apparent KD of MS2 coat protein [2]: 31.4 nM; apparent KD of MS2 coat protein [1]: 28 nM; apparent KD of MS2 coat protein [3]: 55.1 nM
CAUUACUGCAAGCUUUGGGACAUGAGGAUCACCCAUGUUCGUCUUAUUGAUCUAGGUACGCUGACGUACCUAGAUCU [JL-sv1-2.27 Brourd mod] (puzzle: Sensor v3, turn-off variant 1) |  |  | apparent KD of MS2 coat protein [2]: 17 nM; apparent KD of MS2 coat protein [1]: 28.9 nM; apparent KD of MS2 coat protein [3]: 15.4 nM
CCAAGCUUAUUCAUUAACCACAUGAGGAUCACCCAUGUCUAGGCAAUUAUGACUUGCCCAUCAGGUGCUCGUCUUAU [Sensor-V1 #33] (Eterna round: R97, puzzle: Sensor, turn-off variant 1) | 68.7 | 72.3 | 
CCAAGCUUGUUCAUUAUCCACAUGAGGAUCACCCAUGUCUUGGCAAUUAUGACCUGCCCGUCAGGAGCUCGUCUUAU [Sensor-V1 #37] (Eterna round: R97, puzzle: Sensor, turn-off variant 1) | 316 | 346 | 
CCAAGCUUUUUCAUUAACAACAUGAGGAUCACCCAUGUGUAAGCAAUUAUGUUUGGGCUCUUUAGUGCUCGUCUUAU [JR_STOV1_Sub042] (Eterna round: R97, puzzle: Sensor, turn-off variant 1) | 17.4 | 16.7 | 
CCAAGCUUUUUCAUUAACAACAUGAGGAUCACCCAUGUUUAAGCUAUUACUUUUGGGCUCUUUAGUGCUAGUCUUAU [JR_STOV1_Sub039] (Eterna round: R97, puzzle: Sensor, turn-off variant 1) | 18.6 | 19.4 | 

Sequence | apparent KD of MS2 coat protein (input ligand: FMN 200 uM) [nM] | apparent KD of MS2 coat protein (input ligand: none) [nM] | also measured
CCACGACAUGAGGAUCACCCAUGUGAGGAUAUGGCCUGAAAAGCGUGAGCAGUAUCAAUCAGAAGGCGCGUGGG [salish99_ex1_r4_061] (Eterna round: R97, puzzle: Exclusion 1) | 116 | 76.4 | 
CCAGAUGCAGGAUAUGUAAAAUUUGACAUGAGGAUCACCCAUGUAGAUCCUGAAUUUCCUGCAGAAGGGCAUCUGG [Mat - Exclusion 5 - Eli Mod - D20] (Eterna round: R97, puzzle: Exclusion 5) | 288 | 105 | 
CCAGCAAAUGUAAGGAUAUGCUGGUCCUUGGAUCAGCAGAAGGUACAUGAGGAUCACCCAUGUAGGUAAGCUGG [Eli bmx4 4.63] (Eterna round: R97, puzzle: Brourd's mod of Exclusion 4) | 118 | 23.5 | 
CCAGCGUAUGUUAGGAUAUGCUGGUCCUUGGAUCAGCAGAAGGAACAUGAGGAUCACCCAUGUAGAAUCGUUGG [Mod of JL 15 - Jieux - Brourd's mod of Exclusion 4] (Eterna round: R97, puzzle: Brourd's mod of Exclusion 4) | 35 | 20.3 | 
CCAGGCUGUGUGAGGAUAUGCUGGUCCUUGGAUCAGCAGAAGGCACAUGAGGAUCACCCAUGUGAAAAGCUUGG [Mat - Exclusion 4 - JL Mod - D91] (puzzle: Brourd's mod of Exclusion 4) |  |  | apparent KD of MS2 coat protein [1]: 16.2 nM
CCAGUGUAAGGAUAUGUAUACGUCUCUCUGGUAUGAGGGCGGCAGAAGGUACAUGAGGAUCACCCAUGUCAUAU [Eternabot (L2) Solution 94] (Eterna round: R97, puzzle: Exclusion 4) | 37.3 | 22.5 | 
CCAUAGGGAGGAUAUCCAAUAUAUGACAUGAGGAUCACCCAUGUUUCCACUCGUACCUCCGGAGAAGGCCCAUACC [Ex5 #9] (Eterna round: R97, puzzle: Exclusion 5) | 22 | 27 | 
CCAUGUUAGCAGGAUAUGCUAUUAAUCUUUUAUGCAGAAGGGCUUACAUGAGGAUCACCCAUGUAUUAAGUCUU [JR_E6_Sub076] (puzzle: Exclusion 6) |  |  | apparent KD of MS2 coat protein [1]: 11.9 nM
CCCACAAGCUUUUUGCUCGACAUGAGGAUCACCCAUGUUGAAUGGGUUAGAUGUGUGUGAAACAUAUAUAUUUACCU [-24.2, -47 kcal, A 27%] (Eterna round: R97, puzzle: Sensor, turn-off variant 1) | 25.5 | 26.4 | 
CCCACAGGCUUUUUGCUCGACAUGAGGAUCACCCAUGUUGAAUGGGUUGUGUGUGUGUGAUACAUAUAUAUGGUCCU [-25.5, -50.5 kcal, A 21%] (Eterna round: R97, puzzle: Sensor, turn-off variant 1) | 142 | 158 | 
CCCAGUUAGGAAGGAUAUUGUACAUGAGGAUCACCCAUGUAAUAAAUGAGGAUCACGGAUGUAUACAAGAAGGUCCGGAUAGGC [Ostracism 9 - Jieux - Exclusion NG 2] (Eterna round: R96, puzzle: Exclusion NG 2) |  |  | apparent KD of MS2 coat protein [4]: 59.3 nM
CCCAGUUAGGAAGGAUAUUGUACAUGAGGAUCACCCAUGUAAUAAAUGAGGAUCUCGGAUGUAUACAAGAAGGUCCGGAUAGGC [Ostracism 10 - Jieux - Exclusion NG 2] (Eterna round: R96, puzzle: Exclusion NG 2) |  |  | apparent KD of MS2 coat protein [4]: 58.5 nM
CCCAUGCCUGAGGAUAUGCUGUACAAAAGUACUGCAGAAGGCGGGACAUGAGGAUCACCCAUGUGGCGAAAGCC [Omei Ex G6] (Eterna round: R97, puzzle: Exclusion 6) | 67 | 326 | 
CCCAUGUCAGGAUAUUAAUUGGACGGGAAAUCCCGCCCACUUGAGAAGGGACAUGAGGAUCACCCAUGUAAAAC [Esatedbe] (Eterna round: R97, puzzle: Exclusion 4) | 54.7 | 385 | 
CCCGGGUUUGUGAGGAUAUCGGGCCCGAAAGGGCCCGAGAAGGCACAUGAGGAUCACCCAUGUAAGGGCCCGGG [-42.9, -40.9 kcal, A 23%, 0-5cbis] (Eterna round: R97, puzzle: Brourd's mod of Exclusion 4) | 29.3 | 26.1 | 
